Biological target: HIV-1 M group N-terminal capsid domain (HIV-1 M group) (UniProt P12493)
Experiment: ITC

Substance	Kd [µM]	dH [kcal/mol]
Lys125-acetylated Cyclophilin A (recombinant) (from UniProt P62937 1-165) (enzyme)	6.1	-4.6
Cyclophilin A (unacetylated, recombinant) (from UniProt P62937 1-165) (enzyme)	7.5	-7.4
